Source: PMC10132759

Each substance was assayed against GAS7b-Avitag, biotinylated (mouse) (UniProt Q60780) (assay: BLI; BLItz; 0.1 μM biotinylated Avi-tagged GAS7b, Nck or WISH captured on streptavidin (SAX) biosensors; 0.25 μM WASP or its mutants as analyte; 10 mM tris-HCl pH 7.5, 150 mM NaCl, 1 mM EDTA; local fit to a 1:1 model, Kd = Koff/Kon; n = 3).

Sequence of N-WASP without a tag (Q95107 whole entry): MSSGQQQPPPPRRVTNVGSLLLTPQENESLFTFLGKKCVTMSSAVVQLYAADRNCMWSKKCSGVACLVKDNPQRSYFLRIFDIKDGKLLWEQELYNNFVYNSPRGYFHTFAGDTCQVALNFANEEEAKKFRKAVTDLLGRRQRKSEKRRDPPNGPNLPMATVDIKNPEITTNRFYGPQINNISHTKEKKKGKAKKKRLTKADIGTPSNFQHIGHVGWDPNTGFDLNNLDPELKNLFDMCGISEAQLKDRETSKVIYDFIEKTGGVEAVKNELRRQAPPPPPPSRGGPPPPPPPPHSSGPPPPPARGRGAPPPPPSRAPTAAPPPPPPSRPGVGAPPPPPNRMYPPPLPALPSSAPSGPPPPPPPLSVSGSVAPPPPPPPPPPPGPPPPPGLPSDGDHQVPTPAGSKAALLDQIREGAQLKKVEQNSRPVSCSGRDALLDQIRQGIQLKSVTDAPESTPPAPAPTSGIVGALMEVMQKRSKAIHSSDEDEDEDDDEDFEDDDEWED

In order of falling Kd:
1. WASP P373S (FLAG tag) (from UniProt P42768 1-502) (natural protein)  15 nM
2. WASP S339Y (FLAG tag) (from UniProt P42768 1-502) (natural protein)  7.13 nM
3. WASP P359T (FLAG tag) (from UniProt P42768 1-502) (natural protein)  6.89 nM
4. N-WASP without a tag (from UniProt Q95107 1-505) (natural protein)  4.23 nM
5. WASP (FLAG tag) (from UniProt P42768 1-502) (natural protein)  4.11 nM
